Measured values reported in patent publication US20220324954A1 (SHANGHAI NOVAMAB BIOPHARMACEUTICALS, published 2022).

T1: human VEGFB (human, UniProt P49765-2 22-188, limits assumed, biotinylated (sites not given))
T1 construct: also called Biotin-HVEGFB
T1 sequence (looked up): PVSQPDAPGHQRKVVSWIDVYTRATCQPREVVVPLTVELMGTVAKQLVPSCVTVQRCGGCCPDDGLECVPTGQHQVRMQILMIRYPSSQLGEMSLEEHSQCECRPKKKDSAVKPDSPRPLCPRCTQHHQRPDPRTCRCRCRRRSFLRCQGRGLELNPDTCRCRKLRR

T2: human VEGFC (human, UniProt P49767 112-227, limits assumed, biotinylated (sites not given))
T2 construct: also called Biotin-HVEGFC
T2 sequence (looked up): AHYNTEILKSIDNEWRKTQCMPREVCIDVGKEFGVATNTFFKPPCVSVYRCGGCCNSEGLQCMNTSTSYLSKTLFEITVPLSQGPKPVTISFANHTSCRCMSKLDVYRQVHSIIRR

T3: human VEGFD (human, UniProt O43915 89-205, limits assumed, biotinylated (sites not given))
T3 construct: also called Biotin-HVEGFD
T3 sequence (looked up): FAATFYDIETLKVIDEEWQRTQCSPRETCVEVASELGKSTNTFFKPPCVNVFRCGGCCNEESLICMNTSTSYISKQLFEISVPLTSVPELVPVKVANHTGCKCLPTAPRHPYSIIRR


Columns and labels:
human VEGFA [1] = biological target: T4, human VEGFA (human, UniProt P15692-4 27-191, limits assumed, biotinylated (sites not given) in the ELISA assays); assay: blocking ELISA: VEGFR2 coated, biotinylated VEGFA with antibody dilutions (FIG. 4)
T4 construct: also called biotinylated VEGFA protein; biotin-HVEGFA
T4 sequence (P15692 other isoform, or with tags, fused parts or gaps limits assumed): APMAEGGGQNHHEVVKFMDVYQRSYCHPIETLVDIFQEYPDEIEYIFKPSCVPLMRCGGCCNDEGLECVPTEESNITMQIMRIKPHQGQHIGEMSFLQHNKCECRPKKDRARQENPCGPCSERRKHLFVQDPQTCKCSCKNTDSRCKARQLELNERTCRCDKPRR
Description: (§1) (4) After washing with PBST for 5 times, 100 uL SA-HRP (1:100000 dilution) was added and incubated at 37° C. for 1 hour. (5) After washing with PBST for 5 times, TMB chromochrome solution 100 uL was added, and developed at 37° C. for 10 min, 2M H₂SO₄ (50 uL/well) was added to terminate the reaction, and the absorption value was measured at 450 nm wavelength with a microplate reader.

human VEGFA [2] = biological target: T4, human VEGFA; assay: blocking ELISA: VEGFR2 coated, biotinylated VEGFA with antibody dilutions (FIG. 1)
Description: as §1

human VEGFA [3] = biological target: T4, human VEGFA; assay: cell-based or functional assay
human VEGFA [4] = biological target: T4, human VEGFA; assay: blocking ELISA: VEGFR2 coated, biotinylated VEGFA with antibody dilutions (FIG. 5)
Description: as §1

human VEGFA [5] = biological target: T4, human VEGFA; assay: blocking ELISA: VEGFR1 coated, biotinylated VEGFA with antibody dilutions (FIG. 10)
Description: (1) VEGFR1 protein was coated on an enzyme plate (1 ug/mL, 100 uL/well) and incubated at 4° C. overnight. […] (4) After washing with PBST for 5 times, 100 uL SA-HRP (1:100000 dilution) was added and incubated at 37° C. for 1 hour. (5) After washing with PBST for 5 times, TMB solution (100 uL) was added and developed at 37° C. for 10 min, 2M H₂SO₄ (50 uL/well) was added to terminate the reaction, and the absorption value at 450 nm wavelength was measured with a microplate reader.

human VEGFA [6] = biological target: T4, human VEGFA; assay: blocking ELISA: VEGFR2 coated, biotinylated VEGFA with antibody dilutions (FIG. 6)
Description: as §1

human VEGFB = biological target: T1, human VEGFB; assay: ELISA, antibody coated, biotinylated ligand, SA-HRP
Description: (§2) ELISA was used to verify whether the candidate antibodies could cross-react with VEGF homologous proteins. (1) 1 ug/mL antibody to be measured was added to the ELISA plate and coated overnight at 4° C. […] (4) After washing with PBST for 5 times, 100 uL diluted SA-HRP (1:5000 diluted) was added at 37° C. and incubated for 1 hour; (5) After washing with PBST for 5 times, TMB solution (100 uL) was added and developed at 37° C. for 10 min, add 2M H₂SO₄ (50 uL/well) was added to terminate the reaction, and the absorption value at 450 nm wavelength was measured with a microplate reader.

human VEGFC = biological target: T2, human VEGFC; assay: as above
Description: as §2

human VEGFD = biological target: T3, human VEGFD; assay: as above
Description: as §2

human VEGFA [7] = biological target: T4, human VEGFA; assay: blocking ELISA: VEGFR2 coated, biotinylated VEGFA with antibody dilutions (FIG. 5); reference huNb24
Description: as §1

IC50 (human VEGFA [1]) [µg/mL]	IC50 (human VEGFA [2]) [µg/mL]	inhibitory effect on HUVEC cell proliferation (CCK8, OD450), IC50 (human VEGFA [3]) [µg/mL]	IC50 (human VEGFA [4]) [µg/mL]	IC50 (human VEGFA [5]) [µg/mL]	IC50 (human VEGFA [6]) [µg/mL]	binding result (human VEGFB)	binding result (human VEGFC)	binding result (human VEGFD)	fold increase of blocking activity against huNb24 (human VEGFA [7]) [times]	inhibitory effect on HUVEC cell proliferation, IC50 (human VEGFA [3]) [µg/mL]	Binder
0.045	0.0149	0.0296									Nb24 (Fc fusion, also called candidate antibody Nb24; antibody before humanization; not shown: Fc) QVQLQESGGGSVQAGGSLRLSCTASGFTFDDPDVGWFRQAPGNECELVSTISKDGSTYYTDSVKGRFTISQDYAKNTVYLQMNSLKPEDTAVYYCAADSNPIAPIRTCLGWYNYWGQGTQVTVSS
0.038			0.044								huNb24 (Fc fusion, also called humanized antibody huNb24; antibody after humanization; not shown: Fc from the pFUSE vector) EVQLQESGGGLVQPGGSLRLSCTASGFTFDDPDVGWFRQAPGNECELVSTISKDGSTYYTDSVKGRFTISRDYAKNTVYLQMNSLRAEDTAVYYCAADSNPIAPIRTCLGWYNYWGQGTLVTVSS
			0.013	0.168	0.022	no binding (tested: 1 ug/mL)	no binding (tested: 1 ug/mL)	no binding (tested: 1 ug/mL)	> 3	0.0536	hu bi-Nb24(Y) (VHH, Bivalent tandem VHH, one chain, expressed in Pichia pastoris, no Fc; also called humanized bivalent antibody expressed by the yeast; huNb24 bivalent) EVQLQESGGGLVQPGGSLRLSCTASGFTFDDPDVGWFRQAPGNECELVSTISKDGSTYYTDSVKGRFTISRDYAKNTVYLQMNSLRAEDTAVYYCAADSNPIAPIRTCLGWYNYWGQGTLVTVSSGGGGSGGGSEVQLQESGGGLVQPGGSLRLSCTASGFTFDDPDVGWFRQAPGNECELVSTISKDGSTYYTDSVKGRFTISRDYAKNTVYLQMNSLRAEDTAVYYCAADSNPIAPIRTCLGWYNYWGQGTLVTVSS
